The labels stand for the following.
B1: PCMTD2 (parent)
chain: FFIRTSDSFDKFDFCEPSFVTGNC
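Also: lentivirally expressed fusions sorted by FACS into six bins by GFP to DsRed ratio, PSI derived from sequencing read proportions per bin multiplied by bin number.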

In this data set the parent is B1. Kind of data set: protein stability index of a GFP-peptide fusion (GPS, HEK-293T) (PSI 1-6); higher = more stable. As to conditions: c terminus: a fixed tail appended.
In the case of FFIRTSDSFDKFDFCEPSFVTGLC [N23L], the protein stability index turned out to be 3.54.

Take FFIRTSDSFDKFDFCEPSFVTGCC [N23C]: the protein stability index amounted to 3.73.

For the variant FFIRTSDSFDKFDFCEPSFVTGWC [N23W], the protein stability index worked out at 2.05.

In the case of FFIRTSDSFDKFDFCEPSFVTGSC [N23S], the protein stability index is 2.54.

As for FFIRTSDSFDKFDFCEPSFVTGEC [N23E], the protein stability index turned out to be 2.27.

Regarding FFIRTSDSFDKFDFCEPSFVTGTC [N23T], the protein stability index was 2.7.

FFIRTSDSFDKFDFCEPSFVTGAC [N23A]: the protein stability index was determined as 2.62.

In the case of FFIRTSDSFDKFDFCEPSFVTGIC [N23I], the protein stability index turned out to be 2.13.

Consider FFIRTSDSFDKFDFCEPSFVTGQC [N23Q], for which the protein stability index came to 3.51.

With FFIRTSDSFDKFDFCEPSFVTGYC [N23Y], the protein stability index turned out to be 1.61.

As for FFIRTSDSFDKFDFCEPSFVTGVC [N23V], the protein stability index was 2.89.

Regarding FFIRTSDSFDKFDFCEPSFVTGRC [N23R], the protein stability index is 2.88.

Consider FFIRTSDSFDKFDFCEPSFVTGHC [N23H], for which the protein stability index was 2.16.

Regarding FFIRTSDSFDKFDFCEPSFVTGGC [N23G], the protein stability index was 4.12.

Take FFIRTSDSFDKFDFCEPSFVTGMC [N23M]: the protein stability index worked out at 1.83.

Regarding FFIRTSDSFDKFDFCEPSFVTGPC [N23P], the protein stability index was 1.39.

For the variant FFIRTSDSFDKFDFCEPSFVTGKC [N23K], the protein stability index was found to be 1.75.

For the variant FFIRTSDSFDKFDFCEPSFVTGDC [N23D], the protein stability index came out at 2.84.

In the case of FFIRTSDSFDKFDFCEPSFVTGNM [C24M], the protein stability index worked out at 3.61.

For FFIRTSDSFDKFDFCEPSFVTGNL [C24L], the protein stability index was 2.66.

For the variant FFIRTSDSFDKFDFCEPSFVTGNS [C24S], the protein stability index worked out at 2.78.

As for FFIRTSDSFDKFDFCEPSFVTGNE [C24E], the protein stability index is 2.04.

Take FFIRTSDSFDKFDFCEPSFVTGNN [C24N]: the protein stability index was found to be 1.47.

As for FFIRTSDSFDKFDFCEPSFVTGNR [C24R], the protein stability index turned out to be 2.27.

FFIRTSDSFDKFDFCEPSFVTGNT [C24T]: the protein stability index was 2.24.

For the variant FFIRTSDSFDKFDFCEPSFVTGNG [C24G], the protein stability index was 2.09.

As for FFIRTSDSFDKFDFCEPSFVTGNY [C24Y], the protein stability index is 2.53.

Turning to FFIRTSDSFDKFDFCEPSFVTGNH [C24H], the protein stability index is 2.43.

Turning to FFIRTSDSFDKFDFCEPSFVTGNA [C24A], the protein stability index stood at 2.73.

In the case of FFIRTSDSFDKFDFCEPSFVTGNP [C24P], the protein stability index was 1.74.

As to FFIRTSDSFDKFDFCEPSFVTGND [C24D], the protein stability index is 1.64.

As for FFIRTSDSFDKFDFCEPSFVTGNQ [C24Q], the protein stability index was found to be 2.85.

As to FFIRTSDSFDKFDFCEPSFVTGNF [C24F], the protein stability index is 3.29.

Regarding FFIRTSDSFDKFDFCEPSFVTGNK [C24K], the protein stability index was found to be 1.92.

Turning to FFIRTSDSFDKFDFCMPSFVTGNC [E16M], the protein stability index was 3.1.

For the variant FFIRTSDSFDKFDFCAPSFVTGNC [E16A], the protein stability index is 2.25.

As to FFIRTSDSFDKFDFCVPSFVTGNC [E16V], the protein stability index amounted to 2.9.

With FFIRTSDSFDKFDFCNPSFVTGNC [E16N], the protein stability index was found to be 2.95.

For FFIRTSDSFDKFDFCQPSFVTGNC [E16Q], the protein stability index is 2.02.

Take FFIRTSDSFDKFDFCPPSFVTGNC [E16P]: the protein stability index amounted to 1.87.

As for FFIRTSDSFDKFDFCDPSFVTGNC [E16D], the protein stability index worked out at 2.87.

For the variant FFIRTSDSFDKFDFCIPSFVTGNC [E16I], the protein stability index was determined as 2.85.

FFIRTSDSFDKFDFCWPSFVTGNC [E16W]: the protein stability index was found to be 3.77.

Take FFIRTSDSFDKFDFCRPSFVTGNC [E16R]: the protein stability index was 2.11.

For the variant FFIRTSDSFDKFDFCGPSFVTGNC [E16G], the protein stability index stood at 2.2.

FFIRTSDSFDKFDFCFPSFVTGNC [E16F]: the protein stability index was determined as 2.04.

Turning to FFIRTSDSFDKFDFCSPSFVTGNC [E16S], the protein stability index worked out at 2.04.

Consider FFIRTSDSFDKFDFCKPSFVTGNC [E16K], for which the protein stability index stood at 3.41.

For FFIRTSDSFDKFDFCCPSFVTGNC [E16C], the protein stability index came to 2.5.

For FFIRTSDSFDKFDFCHPSFVTGNC [E16H], the protein stability index amounted to 3.4.

For FFIRTSDSFDKFDFCYPSFVTGNC [E16Y], the protein stability index amounted to 3.4.

Regarding FFIRTSDSFDKFDFCEPSTVTGNC [F19T], the protein stability index was determined as 2.04.

As to FFIRTSDSFDKFDFCEPSGVTGNC [F19G], the protein stability index stood at 2.16.

Take FFIRTSDSFDKFDFCEPSNVTGNC [F19N]: the protein stability index was determined as 1.64.

Turning to FFIRTSDSFDKFDFCEPSKVTGNC [F19K], the protein stability index came out at 1.95.

Consider FFIRTSDSFDKFDFCEPSRVTGNC [F19R], for which the protein stability index is 2.21.

Consider FFIRTSDSFDKFDFCEPSYVTGNC [F19Y], for which the protein stability index is 1.67.

Turning to FFIRTSDSFDKFDFCEPSMVTGNC [F19M], the protein stability index came out at 1.68.

Turning to FFIRTSDSFDKFDFCEPSVVTGNC [F19V], the protein stability index came to 2.06.

For FFIRTSDSFDKFDFCEPSQVTGNC [F19Q], the protein stability index is 1.91.

For the variant FFIRTSDSFDKFDFCEPSEVTGNC [F19E], the protein stability index is 1.67.

For FFIRTSDSFDKFDFCEPSCVTGNC [F19C], the protein stability index amounted to 1.49.

For FFIRTSDSFDKFDFCEPSSVTGNC [F19S], the protein stability index worked out at 1.66.

Take FFIRTSDSFDKFDFCEPSIVTGNC [F19I]: the protein stability index is 3.34.

As to FFIRTSDSFDKFDFCEPSAVTGNC [F19A], the protein stability index is 1.69.

On to FFIRTSDSFDKFDFCEPSWVTGNC [F19W], for which the protein stability index was determined as 3.83.

Consider FFIRTSDSFDKFDFCEPSDVTGNC [F19D], for which the protein stability index was found to be 2.11.

Regarding FFIRTSDSFDKFDFCEPSLVTGNC [F19L], the protein stability index is 2.26.

As to FFIRTSDSFDKFDFCEPSHVTGNC [F19H], the protein stability index came out at 1.25.

Take FFIRTSDSFDKFDFCEPSPVTGNC [F19P]: the protein stability index turned out to be 1.92.

As to FFIRTSDSFDKFDFCEFSFVTGNC [P17F], the protein stability index worked out at 2.3.

Regarding FFIRTSDSFDKFDFCEESFVTGNC [P17E], the protein stability index came to 2.18.

With FFIRTSDSFDKFDFCEYSFVTGNC [P17Y], the protein stability index was found to be 3.1.

As for FFIRTSDSFDKFDFCEISFVTGNC [P17I], the protein stability index worked out at 2.35.

With FFIRTSDSFDKFDFCEVSFVTGNC [P17V], the protein stability index was 4.75.

Turning to FFIRTSDSFDKFDFCESSFVTGNC [P17S], the protein stability index came out at 2.03.

Take FFIRTSDSFDKFDFCENSFVTGNC [P17N]: the protein stability index was 2.05.

Regarding FFIRTSDSFDKFDFCEDSFVTGNC [P17D], the protein stability index worked out at 1.47.

Turning to FFIRTSDSFDKFDFCEGSFVTGNC [P17G], the protein stability index worked out at 2.03.

As for FFIRTSDSFDKFDFCETSFVTGNC [P17T], the protein stability index came out at 3.13.

For FFIRTSDSFDKFDFCEASFVTGNC [P17A], the protein stability index turned out to be 2.74.

FFIRTSDSFDKFDFCEMSFVTGNC [P17M]: the protein stability index was 2.69.

On to FFIRTSDSFDKFDFCEHSFVTGNC [P17H], for which the protein stability index is 3.52.

Take FFIRTSDSFDKFDFCEWSFVTGNC [P17W]: the protein stability index worked out at 4.64.

On to FFIRTSDSFDKFDFCEKSFVTGNC [P17K], for which the protein stability index was 2.

For FFIRTSDSFDKFDFCEQSFVTGNC [P17Q], the protein stability index worked out at 2.51.

For FFIRTSDSFDKFDFCELSFVTGNC [P17L], the protein stability index was determined as 3.54.

Regarding FFIRTSDSFDKFDFCECSFVTGNC [P17C], the protein stability index was determined as 2.42.

FFIRTSDSFDKFDTCEPSFVTGNC [F14T]: the protein stability index was 2.5.

On to FFIRTSDSFDKFDVCEPSFVTGNC [F14V], for which the protein stability index came out at 2.05.

FFIRTSDSFDKFDWCEPSFVTGNC [F14W]: the protein stability index turned out to be 2.71.
